# Biological target: T1, SOD1(A4V), Ala4Val variant of human Cu/Zn superoxide dismutase 1 (human, UniProt P00441 2-154, A4V)
# T1 construct: Isolated from E. coli Origami 2(DE3) (pETSOD1(A4V) or pASK-SOD1 vectors); also called isolated SOD1(A4V); mutant SOD1
# Assay: CD spectroscopy of isolated SOD1(A4V) incubated with synthetic cyclic peptide
# Method: Appropriate amounts of synthetic cyclic peptides were added to either 40 µM SOD1(A4V) or 50 µM Aβ solutions at the desired cyclic peptide:target protein molar ratio. SOD1(A4V) structural changes were monitored for 90 d at 25° C., under quiescent conditions. Aβ structural changes were monitored for 30 d at 33° C. under quiescent conditions. CD spectra in the range 190-260 nm were recorded on a JASCO J-715 spectropolarimeter (Jasco Co., Japan) using quartz cuvettes with 1 mm path length. Each reported spectrum is the average of three scans at a rate of 100 nm·min^-1 and a resolution of 0.5 nm.
# T1 sequence (P00441 2-154 A5V): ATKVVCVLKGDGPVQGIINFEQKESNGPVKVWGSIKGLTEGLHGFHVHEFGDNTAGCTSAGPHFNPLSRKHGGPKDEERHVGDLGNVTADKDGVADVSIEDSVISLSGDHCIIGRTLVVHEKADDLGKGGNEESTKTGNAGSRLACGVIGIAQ
row,Binder,binding result
1,"TWSVW (head-to-tail cyclic peptide (cyclo-TWSVW), no free termini, Made by solid-phase synthesis (CPC Scientific); Backbone-cyclised pentapeptide; also called SODC5-4; selected cyclic pentapeptide SOD1C5-4) [SOD1C5-4 (cyclo-TWSVW)]",binds
2,"SASPT (head-to-tail cyclic peptide (cyclo-SASPT), no free termini, Made by solid-phase synthesis (Genscript); also called Aβ-targeting cyclic 5-peptide number 34) [AβC5-34 (cyclo-SASPT)]",no binding
3,"TAFDR (head-to-tail cyclic peptide (cyclo-TAFDR), no free termini, Made by solid-phase synthesis (Genscript)) [AβC5-116 (cyclo-TAFDR)]",no binding

# Reference: US11858974 (RESQ BIOTECH, dated 2024)
